± gives the half width of the 95% confidence interval.
Experiments:
[1] = folding stability dG unfold (combined trypsin and chymotrypsin); higher = more stable
Method in brief: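 How resistant each design was to proteolysis was captured as K50, inferred by Bayesian fitting of sequencing counts. Unfolding free energy was then derived relative to a sequence-predicted unfolded-state K50 and a shared folded-state K50, per protease or combined. Digestion used trypsin and chymotrypsin at 11 threefold-diluted concentrations plus a no-protease condition, on mini-proteins under 80 residues without cysteine in a PA-tagged cDNA display construct. Designs were kept only when AlphaFold2 dimer inter-PAE was above 15.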

[2] = folding stability dG unfold from chymotrypsin proteolysis; higher = more stable
Description: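 Folding stability of de novo designed mini-proteins (<80 aa, no Cys; designed by TrROS, TrMRF, ProteinMPNN and the joint model) was measured by cDNA display proteolysis with trypsin and chymotrypsin. Each protease was used at 11 concentrations in a threefold dilution series plus a no-protease condition. K50 was inferred by Bayesian fitting of sequencing counts, and dG unfold was derived against a sequence-predicted unfolded-state K50 (Tsuboyama et al. method). Sequences shown include variable-length N-terminal GS-type padding (SAGGSAGG...) inside a display construct carrying a PA tag. Rows were kept only if the AF2 dimer inter-PAE was >15, to exclude likely homo-oligomers.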

SAGGSAGGSAGGSMVPVPVNILKLAPGGIPLGTYPVEPLRKEGISPEEFAKKNGYIISGSAGGSAGGSAGGS [r10_153_JUSTAS]
folding stability dG unfold [1]: -0.827 ± 0.26 kcal/mol | folding stability dG unfold [2]: -0.0261 ± 0.3 kcal/mol

SAGGSAGGSAGGSNPNKPKEFYRIEYTHGGKPHTHMFPPNEPIPPGPNMKVDPFPADDLSAGGSAGGSAGGS [r4_107_TrROS]
folding stability dG unfold [1]: -0.688 ± 0.69 kcal/mol | folding stability dG unfold [2]: -0.131 ± 0.23 kcal/mol

SAGGSAGGSAGGSPFWRIKIENPGNGKEITVMVPPDDIDKAKEEAEQEGLKKIEIEPVPSAGGSAGGSAGGS [r4_102_TrROS]
folding stability dG unfold [1]: -0.993 ± 0.7 kcal/mol | folding stability dG unfold [2]: -0.0872 ± 0.3 kcal/mol

SAGGSAGGSAGGSPLTLTRTLTLTRTTTDPDVPGTTTTETRTLTLTTELTLPPLPPGTPSAGGSAGGSAGGS [r4_231_TrROS_Hall]
folding stability dG unfold [1]: < -1 kcal/mol | folding stability dG unfold [2]: 0.588 ± 0.18 kcal/mol

SAGGSAGGSAGGSPRHYYVEIEFPNGRKMSIPIESPEEALDYLEDHNYPIKDVELHPLKSAGGSAGGSAGGS [r4_213_TrROS]
folding stability dG unfold [1]: -0.323 ± 0.41 kcal/mol | folding stability dG unfold [2]: 0.0167 ± 0.25 kcal/mol

SAGGSAGGSAGGSPVIFVDPVEGRARVLLAAPAPNPDGEPGGLGLAEVEFEVGDVRLLLSAGGSAGGSAGGS [r4_10_TrMRF]
folding stability dG unfold [1]: -0.00848 ± 0.12 kcal/mol | folding stability dG unfold [2]: 0.753 ± 0.075 kcal/mol

SAGGSAGGSAGGSSMLTTRPLPGGRTLLRTTLPDGTILVTRYDAAGEPVLETLPPSTPLLSAGGSAGGSAGG [r7_215_JUSTAS]
folding stability dG unfold [1]: < -1 kcal/mol | folding stability dG unfold [2]: 0.102 ± 0.27 kcal/mol

SAGGSAGGSAGGSSTITLDPANPTVVTDPATGVPTTGVSLAELEKLGMKPAGPDAYVVLSAGGSAGGSAGGS [r4_306_JUSTAS]
folding stability dG unfold [1]: < -1 kcal/mol | folding stability dG unfold [2]: 0.289 ± 0.18 kcal/mol

SAGGSAGGSAGGSSVYTSPSKPIAITSRTLVPESNLVRVEAVDPSGAPIEGIIPPSATLGSAGGSAGGSAGG [r7_427_JUSTAS]
folding stability dG unfold [1]: < -1 kcal/mol | folding stability dG unfold [2]: -0.114 ± 0.27 kcal/mol

SAGGSAGGSAGGSTVTVTSEEEAQEAREALAAERAAAEPGAEPPEAFPVEVEVVPPELRSAGGSAGGSAGGS [r4_498_JUSTAS]
folding stability dG unfold [1]: 0.0161 ± 0.22 kcal/mol | folding stability dG unfold [2]: 0.633 ± 0.047 kcal/mol

SAGGSAGGSAGGVRIPPGHWKHRLGFPNGKENEFNIPPGAPIEIPPNADDVKIQEIEPVPSAGGSAGGSAGG [r7_542_TrROS]
folding stability dG unfold [1]: < -1 kcal/mol | folding stability dG unfold [2]: -0.251 ± 0.36 kcal/mol

SAGGSAGGSAGGVTVSPEEYLATFPPGLTLRDSAGNLHELGDRAPVDPAAPVTLLSPEELSAGGSAGGSAGG [r7_507_JUSTAS]
folding stability dG unfold [1]: -0.18 ± 0.12 kcal/mol | folding stability dG unfold [2]: 0.464 ± 0.039 kcal/mol

SAGGSAGGSAGKKKVLILGGDAVATAKELKKLGEDVEVEVLESGEDLEEHLKNYDLVLSGSAGGSAGGSAGG [r17_225_TrMRF]
folding stability dG unfold [1]: 0.106 ± 0.27 kcal/mol | folding stability dG unfold [2]: 0.344 ± 0.14 kcal/mol

SAGGSAGGSAGKKTLYVIKIELSDEQLKEAKKEGKPLKLKAEIVEVKPVKVEVKKEYKKESAGGSAGGSAGG [r11_26_TrROS_Hall]
folding stability dG unfold [1]: -0.167 ± 0.56 kcal/mol | folding stability dG unfold [2]: 0.586 ± 0.31 kcal/mol

SAGGSAGGSAGMETRLIAVLEDGEAVFEDGGTLITVPADEDVADIPDGGGLGTIYIPKDGSAGGSAGGSAGG [r11_647_TrMRF]
folding stability dG unfold [1]: -0.0625 ± 0.17 kcal/mol | folding stability dG unfold [2]: 0.53 ± 0.036 kcal/mol

SAGGSAGGSAGMGSTSTSTSITPTPEGRIVVDTTTTFTDPGGVPVGSTTTTTTLPPGAAASAGGSAGGSAGG [r11_898_JUSTAS]
folding stability dG unfold [1]: -0.279 ± 0.16 kcal/mol | folding stability dG unfold [2]: 0.242 ± 0.066 kcal/mol

SAGGSAGGSAGMKDNLVVTRTYTLPDDTVLVTRATFDSNPELVTVDVTEVPLSDVAPDAVSAGGSAGGSAGG [r11_493_TrMRF]
folding stability dG unfold [1]: -0.0312 ± 0.14 kcal/mol | folding stability dG unfold [2]: 0.514 ± 0.11 kcal/mol

SAGGSAGGSAGMKVIVLPVPPNADRVRITYEKGPTLEIEAREDEPVVIVAPENEFTVEVDSAGGSAGGSAGG [r11_52_TrMRF]
folding stability dG unfold [1]: < -1 kcal/mol | folding stability dG unfold [2]: -0.383 ± 0.28 kcal/mol

SAGGSAGGSAGMLSVTELSTEEKGSLVTTTTRATVGSTTVTTTTTTFVPRSTALLNPDRGSAGGSAGGSAGG [r11_213_JUSTAS]
folding stability dG unfold [1]: -0.0509 ± 0.48 kcal/mol | folding stability dG unfold [2]: 0.55 ± 0.089 kcal/mol

SAGGSAGGSAGMRLLTEEIVVEQFFYETGETRLTVLTKEILVVPPRPVPVPLPEGGLRLLSAGGSAGGSAGG [r11_307_JUSTAS]
folding stability dG unfold [1]: 0.184 ± 0.13 kcal/mol | folding stability dG unfold [2]: 0.925 ± 0.11 kcal/mol

SAGGSAGGSAGMVIPSTSPEEAVEKLRELVEKRGDFLVDVKPTEVHPDGTVVIETKKKPLSAGGSAGGSAGG [r17_430_JUSTAS]
folding stability dG unfold [1]: -0.269 ± 0.21 kcal/mol | folding stability dG unfold [2]: 0.21 ± 0.09 kcal/mol

Source: the supplement of paper PMC12764529
